Experimental findings from article PMC9006650, “Phosphorylation and acetylation of mitochondrial transcription factor A promote transcription processivity without compromising initiation or DNA compaction” are described below.

The target in this data set is T1, TFAM (unmodified) (Homo sapiens, UniProt Q00059 43-246).
T1 sequence: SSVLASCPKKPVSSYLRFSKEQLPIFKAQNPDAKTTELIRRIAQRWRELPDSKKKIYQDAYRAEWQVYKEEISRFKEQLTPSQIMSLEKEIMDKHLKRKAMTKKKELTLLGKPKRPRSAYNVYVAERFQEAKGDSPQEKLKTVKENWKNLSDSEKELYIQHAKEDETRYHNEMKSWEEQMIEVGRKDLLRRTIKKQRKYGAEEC
Briefly: EMSA; 40 nM DNA; 50, 25, 12 bp per TFAM; no gel shift (legend: very low affinity); pUC19: 50 mM Tris-acetate pH 8.0, 100 mM K acetate, 5 mM Mg acetate, 1 mM DTT, 37 C 30 min, 1% agarose at 4 C; poly-T: 25 mM Tris-HCl pH 8.0, 70 mM NaCl, 10 mM. The settings on record: protein: recombinant; tags: N-terminal His6 removed with TEV protease; label: 5'-32P; single strand. A general note: In EMSA bound probe runs differently from free probe, usually more slowly.

In the case of TTTTTTTTTTTTTTTTTTTTTTTTTTTTTT (ssDNA) [poly-T ssDNA 30-mer], the binding result was “no binding”.
